{
  "source": "patent US20050153368A1",
  "target": "Gα15 (mammalian)",
  "data": [
    {"substance": "Anopheles gambiae odorant receptor 1 (from UniProt Q8WTE7)", "values": [
      {"measurement": "clamp current on perfusion with 4-methyl phenol, voltage clamp of Xenopus oocytes expressing AgOR1/Gα15", "result": 20, "unit": "nA"}
    ]}
  ]
}
